Measured values published in the supplement of paper PMC12042874.
± gives the uncertainty stated by the source.

Experiment: amyloid nucleation score (Sup35N fusion, yeast selection) (log enrichment); library NNK3; higher = more nucleation; inactive = no reads after selection
Method in brief: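 Random libraries were run with three technical output replicates. In each, psi-negative yeast expressing Sup35N fused to peptides of 20 random codons were induced 24 hours with 100 μM copper sulfate and grown 7 days at 30°C on medium lacking adenine and uracil, and input and output plasmid inserts were Illumina-sequenced. The nucleation score is the DiMSum log enrichment of output over input reads, centred on the mode score of non-aggregating sequences, and sequences under 100 input reads were excluded.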

Substance	amyloid nucleation score
AACNIN	inactive
ACAGMDCKGYMFLWSFGRAW	inactive
ACESCSFTSWRTYLCSKVRT	-0.172 ± 1.5
ACGCYVSEIPWLRDRIKFWQ	inactive
ACGGCHYKRAYMQLGLMRLK	inactive
ACIYYHTASCKRCQQAIESE	inactive
ACRYDLSKKPNASWARAEG	-0.272 ± 0.37
ACSLAFLHICHRHF	0.712 ± 0.39
ACSYVGTKMLPGANLRDKPW	-0.387 ± 1.5
ADMCWTNRSETYDGELTVGV	inactive
ADVLLMRDRAFRRGSWRMAR	inactive
AEIKMLLLQIHDS	0.078 ± 0.23
AEYLMEQAGTMC	inactive
AFDYLVV	inactive
AFKLYWKYCRYNPWVRNR	inactive
AFQLVHSWSFVGGTRALAVT	inactive
AFWSH	inactive
AFYFNEMYRLVLMGTM	inactive
AGESEISVRMEKSHSGVASR	-0.436 ± 1.7
AGHYLLSPGYQMMLERSNRS	inactive
AGLPLV	inactive
AGVWWVCRRGVFFALMLM	inactive
AGWGLLQSCRRFWEWCG	inactive

Substance	amyloid nucleation score
AHCCSFRAEFV	1.75 ± 0.096
AHGNINFSLCDWHHIIQFSM	inactive
AIRGMNAERNR	inactive
AITGFNRKVDYLGSGECVEH	inactive
AIVWPSYFIWFYSNESRKDR	inactive
AKCMSNYYERCVLNTERREL	inactive
AKQVGLY	inactive
AKVKIWAWASIGCPPMQALV	inactive
AKWSGFYYVLMYFFMLHLRY	inactive
ALCSKGMGANSAKTK	inactive
ALFKTYHLKGMFGKNWVLVV	inactive
ALFTESF	inactive
ALGCPGSQNLYFGSGSPAWS	inactive
ALKSPDSD	inactive
ALLCRMGRVRWPVSHEGNVC	inactive
ALLTAYDRKNTNGYAGVRWN	inactive
ALMGHE	inactive
ALQFATVDGKVLSI	inactive
ALSAYQGVFSYWCRWQWLVA	inactive
ALVDILFLDLGLTLDLRVGL	inactive
ALVSK	inactive
AMIFAICCLNNQESVGVRRT	2.49 ± 0.071
ANDGAHFFIIQLECHAEEVR	-0.303 ± 0.39

Substance	amyloid nucleation score
ANELERYYVMCFW	1.64 ± 0.099
ANGLAGDYE	-0.578 ± 1.3
ANHLPWEAVWTPRWGYGCSP	inactive
ANKPWVNDIFPT	inactive
ANKWESGSNALLDISVLMFW	inactive
ANLIYPRLEFCISMCTQMAE	inactive
ANPLAYLQSMSGTSGNT	inactive
ANSYHWTVFVRMFSQDIVNI	inactive
ANTGFLLSWNGFLLMCLELD	inactive
ANTGMWLRMFPCWAPWDRVE	inactive
APGIFPMSGMISYSLRV	inactive
APNFCWSLFYVDSNVEFERL	inactive
AQNSDHMSKATVH	inactive
AQPVNMDKSWG	inactive
AQRGIYWTTKVD	inactive
AQSGVPRGAPGLAFDSVPHK	inactive
AQSYSCFRNHFTDAVVCVFS	-0.496 ± 1.5
ARFFVVGLWCVSIKIVPFFD	inactive
ARIPEMLWFWVGTRKRGFII	1.74 ± 0.11
ARLAFGIGE	inactive
ARLAYMYMEDGKCSTHRGKF	inactive
ARLPFCAISLTRYGWFSCRC	inactive
ARRNYHRAINFGGSCAIINK	inactive

Substance	amyloid nucleation score
ARSIFEVTRHEAAGRMSVFS	-0.01 ± 0.96
ARVKWMVGEIWCQSDDKPLE	inactive
ARYKGWTHNWPINHLIFLNS	-0.127 ± 1.1
ASACPRLWVRLCLGCVIPKE	inactive
ASATARHTPNIY	inactive
ASDCWLFIGNAGSFTGKRSC	inactive
ASEFKTSWWNV	-0.549 ± 0.68
ASHDKGFYLGSCTYLYGLRL	inactive
ASKALIWCLSRCIDLVVLRE	inactive
ASLRLLVLVNSMWVGFFFNS	inactive
ASMLLDKYFANLYELVLRVF	inactive
ASNDDVG	inactive
ASNEERLLFKCLLKV	-0.411 ± 0.73
ASQAALFGKIHYEASY	inactive
ASRGRRLCSLYTHEGGSS	inactive
ASRKTFYAL	inactive
ASTDEDFNTNTECT	inactive
ASTQRMYMSLLVDGWVTIRL	inactive
ASTTVGCVYYTLVLIG	1.98 ± 0.09
ASYRAVNVDTGRIWPEFQLG	inactive
ASYYVKEFVQREHSIYAN	inactive
ATFYSFLRFKQINNRNNEAF	inactive
ATKYDFYMVNKRNFWKSRGF	inactive

Substance	amyloid nucleation score
ATLYNSVRLC	inactive
ATRSLSDRPLEYCNNVDRKK	inactive
ATYNEMYVVPSRASPKGDWD	inactive
AVAHA	inactive
AVFRLSSTISECDLHACAPV	inactive
AVITSRVRWSLRNRRANISM	inactive
AVRMICDSCAYSLPTWVDLA	-0.592 ± 1.4
AVSLGVTRSKIRLASKVRVD	inactive
AVTSLDVGFYV	inactive
AVVRDDLVSCPPSAATLQIP	inactive
AWVHNSVRRHSSPSPRLGGM	inactive
AWYSDCRCVKPHVGRGNWCM	inactive
AYALALCLRE	inactive
AYEIQWIWPNAASTVKSVLA	inactive
AYFDLWLM	inactive
AYFLKEVNYMVKIYNLECRV	inactive
AYFLLCHHFTKRSWARGWR	0.314 ± 0.46
AYIIN	-0.363 ± 0.82
AYKNRSFFLVVVITYNRVMP	inactive
AYMCCYDAYTPRRSRCDWYI	-0.402 ± 1.1
AYMLGITQNNGNHLNSSRRR	inactive
AYNGK	inactive
AYPARLTIASEFKIMAHYGM	1.36 ± 0.15

Substance	amyloid nucleation score
AYRINRTTDRIIIDSGDVVV	inactive
CADGSSFRETPSNFTHPNIL	inactive
CADQWS	inactive
CADVTTTHGGLYVGPSSTAT	inactive
CAESFHIAASG	inactive
CAFVDSISCLPLFR	inactive
CATIILSCILSL	1.14 ± 0.13
CAYDINYLCSREWVSNSCWG	inactive
CCNYFLNIIYVVQV	3.14 ± 0.058
CCSKFHAQN	inactive
CDHYRISWNLKWLVVRMYY	inactive
CDIHLRIY	inactive
CDIRAAGSKLTDYPLSTRAS	inactive
CDVHL	inactive
CEFTAPVICLISLCYVGRSR	1.09 ± 0.094
CELVAQFPKFFAFYIFYDDT	inactive
CENYRMGYRNVRVSFAPPFK	inactive
CEWNERRRDGSSRNFDLLSQ	-0.045 ± 1.1
CFCYSLDSLLQVGNNS	inactive
CFETCLSAVGHSIQAQKLSG	0.193 ± 0.29
CFIMLWCTISFIILVSLVTD	0.671 ± 0.3
CFKFWWGIRENFKFLGDVMR	inactive
CFKSIITMNFYINWYFVSSP	inactive

Substance	amyloid nucleation score
CFLGVSNMHIGWFGVR	0.838 ± 0.12
CFLSWWLRDLVLSSCSTYVD	inactive
CFMLSDGHTCFVLMSGWFSS	inactive
CFMTS	inactive
CFNRITDC	inactive
CFPASCIQ	inactive
CFYLDQSRFRSA	inactive
CFYMTSSDYQEGNG	inactive
CFYVSLCGV	0.259 ± 0.49
CGCYSLMFFSMTCNEKLLSL	inactive
CGFAHFRNVALGWWYGVTLN	inactive
CGGAMMKN	inactive
CGMCLGLLHR	0.898 ± 0.21
CGPHTSYRTMIVLNIRYNFY	1.46 ± 0.099
CGRRYGTGAPRCL	inactive
CHEKANQELRHPYGCECVFV	inactive
CHFIRGESSRTKLGLEHTN	inactive
CHISFWLTLWGRSNSEMWMD	inactive
CHSFIMIYVVMMDIS	0.103 ± 0.55
CHSRTDKNSFC	inactive
CHWNYTKIRHFYEVVGDQTG	inactive
CHYNFPVPAVKILRGQRNVA	inactive
